Reference: patent US6794168B1, “Process for oxidising aromatic compounds” (Isis Innovation Limited, priority 1999, dated 2004)

Tests used:
P450cam = assay: Oxidation of further halo aromatic substrates by P450cam enzymes; type: biochemical, Pseudomonas putida; settings: substrate of P450cam enzymes
Protocol: (§1) 50 mM Tris-HCl buffer pH 7.4 is added to make up the volume.
(§2) Temperature controlled at 30° C., optional.
(§3) The NADH turnover rate could be determined by monitoring the absorbance at 340 nm with time.
(§4) All mutants have C334A. Coupling efficiency is the percentage of NADH consumed which was utilised for product formation, i.e. a percentage of the theoretical maximum efficiency. The product formation rates are given in (nmol product) (nmol P450cam)^−1(min)^−1. The relative amount of product formed in each case is shown. 1,3- and 1,4-dichlorobenzene, 1,2,3- and 1,3,5-trichlorobenzene, 1,2,4,5- and 1,2,3,5-tetrachlorobenzene, and […] and 2,2′,4,5,5′-pentachlorobiphenyl were also found to be oxidised.

[1] = Oxidation of halo aromatic compounds by P450cam mutants in vitro, trichlorophenol products; type: biochemical; settings: for Product formation rate: (nmol product)(nmol P450cam)^−1(min)^−1; for Product formation rate / Coupling Efficiency (%): trichlorophenol products; for Coupling Efficiency (%): percentage of NADH consumed utilised for product formation; for 2,3,6-Trichlorophenol (relative amount of product formed) / 3,4,6-Trichlorophenol (relative amount of product formed): substrate not named, all mutants have C334A
Protocol: as §1, §2, §3, §4

[2] = Oxidation of halo aromatic compounds by P450cam mutants in vitro, dichlorophenol products; type: biochemical; settings: for Product formation rate: (nmol product)(nmol P450cam)^−1(min)^−1; for Product formation rate / Coupling Efficiency (%): dichlorophenol products; for Coupling Efficiency (%): percentage of NADH consumed utilised for product formation; for 2,3-Dichlorophenol (relative amount of product formed) / 3,4-Dichlorophenol (relative amount of product formed): substrate not named, all mutants have C334A
Protocol: as §1, §2, §3, §4

Molecule | found to be oxidised (P450cam) | Product formation rate [1] [min⁻¹] | Product formation rate [2] [min⁻¹] | other results
Clc1cccc(Cl)c1Cl [1,2,3-trichlorobenzene] | oxidised |  |  | 
Clc1cc(Cl)c(Cl)c(Cl)c1 [1,2,3,5-tetrachlorobenzene] | oxidised |  |  | 
Clc1c(Cl)c(Cl)c(-c2ccccc2)c(Cl)c1Cl [2,3,4,5,6-pentachlorobiphenyl] | oxidised |  |  | 
Clc1cccc(Cl)c1 [1,3-dichlorobenzene] | oxidised |  |  | 
Clc1cc(Cl)cc(Cl)c1 [1,3,5-trichlorobenzene] | oxidised |  |  | 
Clc1ccc(Cl)c(-c2cc(Cl)c(Cl)cc2Cl)c1 [2,2′,4,5,5′-pentachlorobiphenyl] | oxidised |  |  | 
Clc1ccc(Cl)cc1 [1,4-dichlorobenzene] | oxidised |  |  | 
Clc1cc(Cl)c(Cl)cc1Cl [1,2,4,5-tetrachlorobenzene] | oxidised |  |  | 
F87A-Y96F: P450cam mutant (with C334A) (protein, UniProt P00183 2-415, looked up, variant F87A Y96F C334A) Camphor 5-monooxygenase: TTETIQSNANLAPLPPHVPEHLVFDFDMYNPSNLSAGVQEAWAVLQESNVPDLVWTRCNGGHWIATRGQLIREAYEDYRHFSSECPAIPREAGEAFDFIPTSMDPPEQRQFRALANQVVGMPVVDKLENRIQELACSLIESLRPQGQCNFTEDYAEPFPIRIFMLLAGLPEEDIPHLKYLTDQMTRPDGSMTFAEAKEALYDYLIPIIEQRRQKPGTDAISIVANGQVNGRPITSDEAKRMCGLLLVGGLDTVVNFLSFSMEFLAKSPEHRQELIERPERIPAACEELLRRFSLVADGRILTSDYEFHGVQLKKGDQILLPQMLSGLDERENAAPMHVDFSRQKVSHTTFGHGSHLCLGQHLARREIIVTLKEWLTRIPDFSIAPGAQIQHKSGIVSGVQALPLVWDPATTKAV |  | 3 |  | 
C334A: P450cam with only the base mutation C334A (protein, UniProt P00183 2-415, looked up, variant C334A) Camphor 5-monooxygenase: TTETIQSNANLAPLPPHVPEHLVFDFDMYNPSNLSAGVQEAWAVLQESNVPDLVWTRCNGGHWIATRGQLIREAYEDYRHFSSECPFIPREAGEAYDFIPTSMDPPEQRQFRALANQVVGMPVVDKLENRIQELACSLIESLRPQGQCNFTEDYAEPFPIRIFMLLAGLPEEDIPHLKYLTDQMTRPDGSMTFAEAKEALYDYLIPIIEQRRQKPGTDAISIVANGQVNGRPITSDEAKRMCGLLLVGGLDTVVNFLSFSMEFLAKSPEHRQELIERPERIPAACEELLRRFSLVADGRILTSDYEFHGVQLKKGDQILLPQMLSGLDERENAAPMHVDFSRQKVSHTTFGHGSHLCLGQHLARREIIVTLKEWLTRIPDFSIAPGAQIQHKSGIVSGVQALPLVWDPATTKAV |  |  | 0.5 | Coupling Efficiency (%) [2]: 2%; 2,3-Dichlorophenol (relative amount of product formed) [2]: 95; 3,4-Dichlorophenol (relative amount of product formed) [2]: 5
Y96A: P450cam mutant (with C334A) (protein, UniProt P00183 2-415, looked up, variant Y96A C334A) Camphor 5-monooxygenase: TTETIQSNANLAPLPPHVPEHLVFDFDMYNPSNLSAGVQEAWAVLQESNVPDLVWTRCNGGHWIATRGQLIREAYEDYRHFSSECPFIPREAGEAADFIPTSMDPPEQRQFRALANQVVGMPVVDKLENRIQELACSLIESLRPQGQCNFTEDYAEPFPIRIFMLLAGLPEEDIPHLKYLTDQMTRPDGSMTFAEAKEALYDYLIPIIEQRRQKPGTDAISIVANGQVNGRPITSDEAKRMCGLLLVGGLDTVVNFLSFSMEFLAKSPEHRQELIERPERIPAACEELLRRFSLVADGRILTSDYEFHGVQLKKGDQILLPQMLSGLDERENAAPMHVDFSRQKVSHTTFGHGSHLCLGQHLARREIIVTLKEWLTRIPDFSIAPGAQIQHKSGIVSGVQALPLVWDPATTKAV |  | 33 | 19 | Coupling Efficiency (%) [1]: 14%; 2,3,6-Trichlorophenol (relative amount of product formed) [1]: 77; 3,4,6-Trichlorophenol (relative amount of product formed) [1]: 23; Coupling Efficiency (%) [2]: 6%; 2,3-Dichlorophenol (relative amount of product formed) [2]: 94; 3,4-Dichlorophenol (relative amount of product formed) [2]: 6
F87A-Y96F-V247A: P450cam mutant (with C334A) (protein, UniProt P00183 2-415, looked up, variant F87A Y96F V247A C334A) Camphor 5-monooxygenase: TTETIQSNANLAPLPPHVPEHLVFDFDMYNPSNLSAGVQEAWAVLQESNVPDLVWTRCNGGHWIATRGQLIREAYEDYRHFSSECPAIPREAGEAFDFIPTSMDPPEQRQFRALANQVVGMPVVDKLENRIQELACSLIESLRPQGQCNFTEDYAEPFPIRIFMLLAGLPEEDIPHLKYLTDQMTRPDGSMTFAEAKEALYDYLIPIIEQRRQKPGTDAISIVANGQVNGRPITSDEAKRMCGLLLAGGLDTVVNFLSFSMEFLAKSPEHRQELIERPERIPAACEELLRRFSLVADGRILTSDYEFHGVQLKKGDQILLPQMLSGLDERENAAPMHVDFSRQKVSHTTFGHGSHLCLGQHLARREIIVTLKEWLTRIPDFSIAPGAQIQHKSGIVSGVQALPLVWDPATTKAV |  | 7 |  | 
Y96L-V247A: P450cam mutant (with C334A) (protein, UniProt P00183 2-415, looked up, variant Y96L V247A C334A) Camphor 5-monooxygenase: TTETIQSNANLAPLPPHVPEHLVFDFDMYNPSNLSAGVQEAWAVLQESNVPDLVWTRCNGGHWIATRGQLIREAYEDYRHFSSECPFIPREAGEALDFIPTSMDPPEQRQFRALANQVVGMPVVDKLENRIQELACSLIESLRPQGQCNFTEDYAEPFPIRIFMLLAGLPEEDIPHLKYLTDQMTRPDGSMTFAEAKEALYDYLIPIIEQRRQKPGTDAISIVANGQVNGRPITSDEAKRMCGLLLAGGLDTVVNFLSFSMEFLAKSPEHRQELIERPERIPAACEELLRRFSLVADGRILTSDYEFHGVQLKKGDQILLPQMLSGLDERENAAPMHVDFSRQKVSHTTFGHGSHLCLGQHLARREIIVTLKEWLTRIPDFSIAPGAQIQHKSGIVSGVQALPLVWDPATTKAV |  |  | 0.7 | Coupling Efficiency (%) [2]: 2%; 2,3-Dichlorophenol (relative amount of product formed) [2]: 90; 3,4-Dichlorophenol (relative amount of product formed) [2]: 10
Y96H: P450cam mutant (with C334A) (protein, UniProt P00183 2-415, looked up, variant Y96H C334A) Camphor 5-monooxygenase: TTETIQSNANLAPLPPHVPEHLVFDFDMYNPSNLSAGVQEAWAVLQESNVPDLVWTRCNGGHWIATRGQLIREAYEDYRHFSSECPFIPREAGEAHDFIPTSMDPPEQRQFRALANQVVGMPVVDKLENRIQELACSLIESLRPQGQCNFTEDYAEPFPIRIFMLLAGLPEEDIPHLKYLTDQMTRPDGSMTFAEAKEALYDYLIPIIEQRRQKPGTDAISIVANGQVNGRPITSDEAKRMCGLLLVGGLDTVVNFLSFSMEFLAKSPEHRQELIERPERIPAACEELLRRFSLVADGRILTSDYEFHGVQLKKGDQILLPQMLSGLDERENAAPMHVDFSRQKVSHTTFGHGSHLCLGQHLARREIIVTLKEWLTRIPDFSIAPGAQIQHKSGIVSGVQALPLVWDPATTKAV |  | 1 |  | Coupling Efficiency (%) [1]: 3%; 2,3,6-Trichlorophenol (relative amount of product formed) [1]: 54; 3,4,6-Trichlorophenol (relative amount of product formed) [1]: 46
Y96A-V247L: P450cam mutant (with C334A) (protein, UniProt P00183 2-415, looked up, variant Y96A V247L C334A) Camphor 5-monooxygenase: TTETIQSNANLAPLPPHVPEHLVFDFDMYNPSNLSAGVQEAWAVLQESNVPDLVWTRCNGGHWIATRGQLIREAYEDYRHFSSECPFIPREAGEAADFIPTSMDPPEQRQFRALANQVVGMPVVDKLENRIQELACSLIESLRPQGQCNFTEDYAEPFPIRIFMLLAGLPEEDIPHLKYLTDQMTRPDGSMTFAEAKEALYDYLIPIIEQRRQKPGTDAISIVANGQVNGRPITSDEAKRMCGLLLLGGLDTVVNFLSFSMEFLAKSPEHRQELIERPERIPAACEELLRRFSLVADGRILTSDYEFHGVQLKKGDQILLPQMLSGLDERENAAPMHVDFSRQKVSHTTFGHGSHLCLGQHLARREIIVTLKEWLTRIPDFSIAPGAQIQHKSGIVSGVQALPLVWDPATTKAV |  |  | 20 | 
F87L-Y96F: P450cam mutant (with C334A) (protein, UniProt P00183 2-415, looked up, variant F87L Y96F C334A) Camphor 5-monooxygenase: TTETIQSNANLAPLPPHVPEHLVFDFDMYNPSNLSAGVQEAWAVLQESNVPDLVWTRCNGGHWIATRGQLIREAYEDYRHFSSECPLIPREAGEAFDFIPTSMDPPEQRQFRALANQVVGMPVVDKLENRIQELACSLIESLRPQGQCNFTEDYAEPFPIRIFMLLAGLPEEDIPHLKYLTDQMTRPDGSMTFAEAKEALYDYLIPIIEQRRQKPGTDAISIVANGQVNGRPITSDEAKRMCGLLLVGGLDTVVNFLSFSMEFLAKSPEHRQELIERPERIPAACEELLRRFSLVADGRILTSDYEFHGVQLKKGDQILLPQMLSGLDERENAAPMHVDFSRQKVSHTTFGHGSHLCLGQHLARREIIVTLKEWLTRIPDFSIAPGAQIQHKSGIVSGVQALPLVWDPATTKAV |  | 8 | 5 | 
Y96F: P450cam mutant (with C334A) (protein, UniProt P00183 2-415, looked up, variant Y96F C334A) Camphor 5-monooxygenase: TTETIQSNANLAPLPPHVPEHLVFDFDMYNPSNLSAGVQEAWAVLQESNVPDLVWTRCNGGHWIATRGQLIREAYEDYRHFSSECPFIPREAGEAFDFIPTSMDPPEQRQFRALANQVVGMPVVDKLENRIQELACSLIESLRPQGQCNFTEDYAEPFPIRIFMLLAGLPEEDIPHLKYLTDQMTRPDGSMTFAEAKEALYDYLIPIIEQRRQKPGTDAISIVANGQVNGRPITSDEAKRMCGLLLVGGLDTVVNFLSFSMEFLAKSPEHRQELIERPERIPAACEELLRRFSLVADGRILTSDYEFHGVQLKKGDQILLPQMLSGLDERENAAPMHVDFSRQKVSHTTFGHGSHLCLGQHLARREIIVTLKEWLTRIPDFSIAPGAQIQHKSGIVSGVQALPLVWDPATTKAV |  | 22 | 8 | 
